# Experimental data published in article doi:10.1101/2022.01.11.475947.
# Biological target: prefusion-stabilized SARS-CoV-2 spike protein (S-clamp) (SARS-CoV-2)
# Test: SEC
substance,measurement,value
prefusion-stabilized SARS-CoV-2 spike protein (S-clamp),stoichiometry N,3
